According to doi:10.1101/2022.11.08.515461 (bioRxiv, 2022):

B1: Pac1-SNAP (natural protein)
chain: MTNWQQQLPLTDTQKNELDKSVLRYLNWNYKQTVRHEHAQDYESVRHAIVTLSGFLLQESVDRQEFISNNDTSNESMVDIDELLLPKKWNSIVRLQKKIIELEQNTETLVSQIKDLNTQVSELAQFKPTTSNGTSAHNVLKWIPRNLPSCLINVESSVTSVKLHPNLPIVFVATDHGKLYAFDLFNYTIPLASLQSHTKAITSMDVLFTNYTNSSKKNYLVIVTASKDLQIHVFKWVSEECKFQQIRSLLGHEHIVSAVKIWQKNNDVHIASCSRDQTVKIWDFHNGWSLKTFQPHSQWVRSIDVLGDYIISGSHDTTLRLTHWPSGNGLSVGTGHEFPIEKVKFIHFIEDSPEIRFRTPSTDRYKNWGMQYCVSASRDRTIKIWEIPLPTLMAHRAPIPNPTDSNFRCVLTLKGHLSWVRDISIRGQYLFSCADDKSVRCWDLNTGQCLHVWEKLHTGFVNCLDLDVDFDSNVTPRQMMVTGGLDCKSNVFMR
modifications: JF646-SNAP-tag ligand on the SNAP tag (fluorescent labelling)
B2: human LIS1-SNAP (from pFastBac:8His-ZZ-TEV-LIS1-SNAPf) (natural protein)
chain: MVLSQRQRDELNRAIADYLRSNGYEEAYSVFKKEAELDVNEELDKKYAGLLEKKWTSVIRLQKKVMELESKLNEAKEEFTSGGPLGQKRDPKEWIPRPPEKYALSGHRSPVTRVIFHPVFSVMVSASEDATIKVWDYETGDFERTLKGHTDSVQDISFDHSGKLLASCSADMTIKLWDFQGFECIRTMHGHDHNVSSVAIMPNGDHIVSASRDKTIKMWEVQTGYCVKTFTGHREWVRMVRPNQDGTLIASCSNDQTVRVWVVATKECKAELREHEHVVECISWAPESSYSSISEATGSETKKSGKPGPFLLSGSRDKTIKMWDVSTGMCLMTLVGHDNWVRGVLFHSGGKFILSCADDKTLRVWDYKNKRCMKTLNAHEHFVTSLDFHKTAPYVVTGSVDQTVKVWECR

Tests used:
mass photometry = target: the molecule itself; assay: mass photometry
[1] = target: yeast dynein_(MOTOR)^MT-U (microtubule-unbound mutant of the motor domain) (budding yeast | T. thermophilus) (UniProt P34945); assay: mass photometry
[2] = target: yeast dynein_(MOTOR) (wild-type; ZZ-TEV-dynein331-HALO) (budding yeast) (UniProt P36022); assay: mass photometry
[3] = target: human dynein_(MOTOR)^MT-U (microtubule-unbound mutant of the motor domain) (human | T. thermophilus); assay: cryo-EM structure
[4] = target: human dynein_(MOTOR)^MT-U (microtubule-unbound mutant of the motor domain) (human | T. thermophilus); assay: mass photometry
[5] = target: human dynein_(MOTOR)^MT-B (microtubule-bound mutant of the motor domain) (human | T. thermophilus); assay: mass photometry
[6] = target: human dynein_(MOTOR) (wild-type motor domain, residues 1458-4646) (human, UniProt Q14204 1458-4646); assay: mass photometry

Chain of yeast dynein_(MOTOR) (wild-type; ZZ-TEV-dynein331-HALO) (budding yeast) (P36022 whole entry, the tested form may be a part): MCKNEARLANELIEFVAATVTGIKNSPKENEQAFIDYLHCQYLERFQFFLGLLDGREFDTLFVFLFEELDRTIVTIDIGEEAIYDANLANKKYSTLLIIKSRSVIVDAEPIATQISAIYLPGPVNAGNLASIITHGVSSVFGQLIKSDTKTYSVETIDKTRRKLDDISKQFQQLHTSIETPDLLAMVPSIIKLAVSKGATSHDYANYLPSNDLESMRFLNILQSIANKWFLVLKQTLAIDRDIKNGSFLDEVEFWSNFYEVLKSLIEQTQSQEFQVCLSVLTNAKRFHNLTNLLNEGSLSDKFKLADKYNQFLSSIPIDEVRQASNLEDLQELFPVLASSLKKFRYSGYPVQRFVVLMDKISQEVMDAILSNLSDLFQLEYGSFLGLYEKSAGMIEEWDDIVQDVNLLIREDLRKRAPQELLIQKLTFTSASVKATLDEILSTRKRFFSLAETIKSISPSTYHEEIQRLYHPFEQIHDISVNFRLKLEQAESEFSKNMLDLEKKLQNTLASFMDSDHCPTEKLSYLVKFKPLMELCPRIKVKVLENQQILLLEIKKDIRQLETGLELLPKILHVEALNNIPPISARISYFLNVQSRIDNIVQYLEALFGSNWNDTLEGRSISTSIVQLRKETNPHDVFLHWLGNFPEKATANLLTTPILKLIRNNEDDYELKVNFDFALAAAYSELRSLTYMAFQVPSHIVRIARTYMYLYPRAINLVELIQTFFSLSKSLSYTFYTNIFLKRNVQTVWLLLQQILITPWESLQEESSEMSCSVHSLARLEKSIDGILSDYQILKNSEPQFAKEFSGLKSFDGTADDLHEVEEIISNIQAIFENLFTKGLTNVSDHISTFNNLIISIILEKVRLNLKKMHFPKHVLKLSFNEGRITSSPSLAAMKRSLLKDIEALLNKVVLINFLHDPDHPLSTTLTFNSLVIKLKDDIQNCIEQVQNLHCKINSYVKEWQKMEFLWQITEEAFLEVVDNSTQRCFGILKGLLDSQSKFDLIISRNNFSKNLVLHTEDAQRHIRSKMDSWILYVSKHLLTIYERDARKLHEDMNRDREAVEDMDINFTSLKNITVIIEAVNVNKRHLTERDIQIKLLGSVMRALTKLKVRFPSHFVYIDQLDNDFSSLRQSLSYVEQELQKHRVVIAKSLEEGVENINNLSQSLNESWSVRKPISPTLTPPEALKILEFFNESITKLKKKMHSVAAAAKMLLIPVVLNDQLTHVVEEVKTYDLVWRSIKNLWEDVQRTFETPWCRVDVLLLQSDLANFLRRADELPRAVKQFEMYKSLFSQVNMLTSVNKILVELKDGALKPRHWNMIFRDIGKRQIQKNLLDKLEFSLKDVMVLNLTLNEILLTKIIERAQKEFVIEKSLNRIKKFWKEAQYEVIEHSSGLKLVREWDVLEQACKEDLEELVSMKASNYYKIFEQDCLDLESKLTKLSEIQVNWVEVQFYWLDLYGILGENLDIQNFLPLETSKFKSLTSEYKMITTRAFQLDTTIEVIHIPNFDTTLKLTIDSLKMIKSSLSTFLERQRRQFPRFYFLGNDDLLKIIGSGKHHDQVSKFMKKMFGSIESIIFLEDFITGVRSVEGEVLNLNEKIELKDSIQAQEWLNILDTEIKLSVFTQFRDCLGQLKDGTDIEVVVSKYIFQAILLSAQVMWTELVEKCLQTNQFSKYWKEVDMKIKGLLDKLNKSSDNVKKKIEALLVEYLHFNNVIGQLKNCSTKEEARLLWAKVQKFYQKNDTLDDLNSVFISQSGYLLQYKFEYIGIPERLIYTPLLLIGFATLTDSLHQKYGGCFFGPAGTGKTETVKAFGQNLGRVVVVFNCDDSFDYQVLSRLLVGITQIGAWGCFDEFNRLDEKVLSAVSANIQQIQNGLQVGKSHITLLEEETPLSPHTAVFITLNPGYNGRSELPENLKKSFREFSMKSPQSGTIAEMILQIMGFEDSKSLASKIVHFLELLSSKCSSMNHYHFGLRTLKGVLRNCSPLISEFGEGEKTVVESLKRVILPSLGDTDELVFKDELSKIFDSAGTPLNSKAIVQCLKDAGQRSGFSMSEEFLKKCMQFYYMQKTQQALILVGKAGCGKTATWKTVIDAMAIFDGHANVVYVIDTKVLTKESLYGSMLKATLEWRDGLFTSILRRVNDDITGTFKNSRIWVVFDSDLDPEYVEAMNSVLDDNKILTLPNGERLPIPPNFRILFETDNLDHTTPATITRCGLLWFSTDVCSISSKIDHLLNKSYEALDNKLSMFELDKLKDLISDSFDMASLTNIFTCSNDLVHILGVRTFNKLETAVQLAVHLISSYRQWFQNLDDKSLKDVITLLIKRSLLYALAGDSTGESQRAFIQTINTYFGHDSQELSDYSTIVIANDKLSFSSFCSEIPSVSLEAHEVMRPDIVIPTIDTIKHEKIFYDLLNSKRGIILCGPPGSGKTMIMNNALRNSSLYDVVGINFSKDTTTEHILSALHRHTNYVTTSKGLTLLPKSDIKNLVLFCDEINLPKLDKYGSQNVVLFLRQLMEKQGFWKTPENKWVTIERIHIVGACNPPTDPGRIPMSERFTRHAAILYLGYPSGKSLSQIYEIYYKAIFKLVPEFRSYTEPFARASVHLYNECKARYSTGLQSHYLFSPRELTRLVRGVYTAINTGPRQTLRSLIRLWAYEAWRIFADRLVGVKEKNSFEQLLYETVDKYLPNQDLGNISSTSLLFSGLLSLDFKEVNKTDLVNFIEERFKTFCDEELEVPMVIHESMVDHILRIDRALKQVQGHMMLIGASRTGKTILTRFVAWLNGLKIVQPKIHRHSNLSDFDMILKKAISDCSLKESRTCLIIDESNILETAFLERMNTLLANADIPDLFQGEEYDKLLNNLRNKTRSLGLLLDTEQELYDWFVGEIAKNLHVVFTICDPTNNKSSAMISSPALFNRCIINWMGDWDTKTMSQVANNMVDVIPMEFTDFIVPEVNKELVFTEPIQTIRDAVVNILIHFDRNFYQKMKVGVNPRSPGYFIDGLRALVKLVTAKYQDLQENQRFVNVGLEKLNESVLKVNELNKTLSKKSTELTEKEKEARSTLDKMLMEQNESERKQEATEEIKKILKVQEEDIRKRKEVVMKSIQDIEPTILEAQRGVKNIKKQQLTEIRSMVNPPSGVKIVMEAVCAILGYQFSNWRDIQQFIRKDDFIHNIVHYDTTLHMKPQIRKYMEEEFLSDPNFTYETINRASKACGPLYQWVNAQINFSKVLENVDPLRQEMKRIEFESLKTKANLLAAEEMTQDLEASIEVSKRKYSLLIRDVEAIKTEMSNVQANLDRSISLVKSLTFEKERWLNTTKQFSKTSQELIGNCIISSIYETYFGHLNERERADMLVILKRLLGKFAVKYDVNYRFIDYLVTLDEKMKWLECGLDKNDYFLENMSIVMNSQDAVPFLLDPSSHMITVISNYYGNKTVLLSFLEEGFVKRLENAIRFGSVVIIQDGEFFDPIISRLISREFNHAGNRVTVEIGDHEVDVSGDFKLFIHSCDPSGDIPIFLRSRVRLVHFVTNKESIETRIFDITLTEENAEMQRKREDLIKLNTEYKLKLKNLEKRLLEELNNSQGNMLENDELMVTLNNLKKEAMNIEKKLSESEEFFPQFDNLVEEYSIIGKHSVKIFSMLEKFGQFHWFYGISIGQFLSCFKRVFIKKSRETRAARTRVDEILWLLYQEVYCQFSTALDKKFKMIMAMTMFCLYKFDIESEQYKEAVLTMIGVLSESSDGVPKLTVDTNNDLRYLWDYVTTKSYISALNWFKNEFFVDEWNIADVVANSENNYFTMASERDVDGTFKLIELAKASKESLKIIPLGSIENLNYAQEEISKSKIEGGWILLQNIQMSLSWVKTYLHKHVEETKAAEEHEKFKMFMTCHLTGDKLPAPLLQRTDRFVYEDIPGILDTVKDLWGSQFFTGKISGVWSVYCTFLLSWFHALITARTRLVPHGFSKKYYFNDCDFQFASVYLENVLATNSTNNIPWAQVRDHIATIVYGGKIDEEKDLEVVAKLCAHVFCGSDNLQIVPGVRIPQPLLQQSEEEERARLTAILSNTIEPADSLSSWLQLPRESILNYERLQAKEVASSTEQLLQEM
Chain of yeast dynein_(MOTOR)^MT-U (microtubule-unbound mutant of the motor domain) (budding yeast | T. thermophilus) (P34945 whole entry, change not shown, the tested form may be a part): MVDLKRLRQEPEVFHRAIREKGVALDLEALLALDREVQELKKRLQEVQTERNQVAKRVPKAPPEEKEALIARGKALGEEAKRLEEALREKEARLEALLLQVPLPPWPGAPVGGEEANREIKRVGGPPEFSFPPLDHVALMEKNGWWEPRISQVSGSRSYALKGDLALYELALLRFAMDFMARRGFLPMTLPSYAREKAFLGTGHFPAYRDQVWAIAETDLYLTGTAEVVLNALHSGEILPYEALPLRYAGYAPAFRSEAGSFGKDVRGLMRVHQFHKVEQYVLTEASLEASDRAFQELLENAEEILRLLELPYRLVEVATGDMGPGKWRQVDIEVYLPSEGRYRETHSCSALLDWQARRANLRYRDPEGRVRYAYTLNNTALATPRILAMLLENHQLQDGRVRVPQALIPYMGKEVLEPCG

| Binder | stoichiometry N (mass photometry) | stoichiometry N (Pac1 dimer per dynein (MOTOR) monomer) [1] | N of the second species (∼890 kDa) (dynein monomers per Pac1 dimer) [2] | percent of particles with 1 LIS1 bound (3D classification) [3] [%] | percent of particles with 2 LIS1 bound (3D classification) [3] [%] | percent of particles with “1.5” LIS1 bound (3D classification) [3] [%] | stoichiometry N ([3]; scale: LIS1 WD40 beta-propellers per dynein motor) | fold LIS1-binding affinity against dynein (MOTOR)^MT-B [4] [fold] | stoichiometry N (LIS1 dimer per dynein (MOTOR) monomer) [4] | stoichiometry N (LIS1 dimer per dynein (MOTOR) monomer) [5] | binding result [6] |
| --- | --- | --- | --- | --- | --- | --- | --- | --- | --- | --- | --- |
| B1 | 2 | 1 | 2 |  |  |  |  |  |  |  |  |
| B2 |  |  |  | 36.2 | 29.3 | 34.4 | 2 | 2 | 1 | 1 | binds |
